Patent publication US20170342155A1 (Amgen, published 2017)

T1: human CCR7 variant F128L (20100126472) (human, UniProt P32248 25-378)
T1 sequence: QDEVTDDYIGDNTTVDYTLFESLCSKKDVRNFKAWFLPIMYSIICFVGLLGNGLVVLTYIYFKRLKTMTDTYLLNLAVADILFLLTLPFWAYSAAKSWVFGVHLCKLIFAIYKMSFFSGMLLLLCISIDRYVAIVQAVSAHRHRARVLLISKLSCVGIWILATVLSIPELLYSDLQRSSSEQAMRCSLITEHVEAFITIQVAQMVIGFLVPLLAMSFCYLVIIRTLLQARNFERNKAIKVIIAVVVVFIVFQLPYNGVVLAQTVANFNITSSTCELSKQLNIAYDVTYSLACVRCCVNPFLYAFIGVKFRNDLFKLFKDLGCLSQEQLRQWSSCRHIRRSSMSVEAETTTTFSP

T2: human CCR7 variant S202N (20110009483) (human, UniProt P32248 25-378)
T2 sequence: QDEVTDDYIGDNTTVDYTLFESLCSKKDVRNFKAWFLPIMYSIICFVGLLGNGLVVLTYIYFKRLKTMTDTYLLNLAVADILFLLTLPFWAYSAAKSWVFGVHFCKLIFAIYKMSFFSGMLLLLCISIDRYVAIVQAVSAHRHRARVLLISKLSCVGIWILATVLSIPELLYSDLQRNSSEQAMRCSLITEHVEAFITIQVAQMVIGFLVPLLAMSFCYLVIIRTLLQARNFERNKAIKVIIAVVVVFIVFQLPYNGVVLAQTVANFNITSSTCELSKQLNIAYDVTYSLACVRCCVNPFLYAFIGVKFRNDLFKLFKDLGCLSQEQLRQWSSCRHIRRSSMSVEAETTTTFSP

T3: human CCR7 variant L300T (20110018204) (human, UniProt P32248 25-378)
T3 sequence: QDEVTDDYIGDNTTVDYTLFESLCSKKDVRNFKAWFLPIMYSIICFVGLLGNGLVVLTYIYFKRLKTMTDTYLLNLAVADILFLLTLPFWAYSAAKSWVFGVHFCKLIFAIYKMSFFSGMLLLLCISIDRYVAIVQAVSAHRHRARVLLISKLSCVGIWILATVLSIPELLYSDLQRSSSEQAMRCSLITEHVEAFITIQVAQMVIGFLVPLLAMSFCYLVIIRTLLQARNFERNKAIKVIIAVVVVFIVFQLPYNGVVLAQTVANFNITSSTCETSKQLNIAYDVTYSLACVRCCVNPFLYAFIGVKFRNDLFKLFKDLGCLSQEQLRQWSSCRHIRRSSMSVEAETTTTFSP

T4: human CCR7 variant S295N (20110018205) (human, UniProt P32248 25-378)
T4 sequence: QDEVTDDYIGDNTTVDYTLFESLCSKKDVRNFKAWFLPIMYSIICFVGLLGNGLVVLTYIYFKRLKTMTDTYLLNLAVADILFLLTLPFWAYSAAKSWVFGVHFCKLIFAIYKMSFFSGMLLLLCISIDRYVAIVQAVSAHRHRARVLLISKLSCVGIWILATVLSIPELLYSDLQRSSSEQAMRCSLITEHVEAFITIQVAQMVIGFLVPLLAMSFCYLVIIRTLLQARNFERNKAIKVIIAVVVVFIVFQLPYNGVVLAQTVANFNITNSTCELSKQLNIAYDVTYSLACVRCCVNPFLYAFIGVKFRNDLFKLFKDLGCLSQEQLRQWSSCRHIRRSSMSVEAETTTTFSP

T5: human CCR7 variant F44Y (20100128285) (human, UniProt P32248 25-378)
T5 sequence: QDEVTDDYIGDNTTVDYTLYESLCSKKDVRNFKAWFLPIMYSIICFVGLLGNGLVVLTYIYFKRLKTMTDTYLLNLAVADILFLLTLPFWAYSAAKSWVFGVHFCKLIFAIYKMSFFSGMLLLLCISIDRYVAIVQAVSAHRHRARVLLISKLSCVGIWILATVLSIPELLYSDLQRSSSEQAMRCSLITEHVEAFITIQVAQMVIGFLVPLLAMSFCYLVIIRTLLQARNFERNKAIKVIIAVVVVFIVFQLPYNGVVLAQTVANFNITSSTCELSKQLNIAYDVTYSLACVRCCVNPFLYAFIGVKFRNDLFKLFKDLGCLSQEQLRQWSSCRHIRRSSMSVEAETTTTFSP

T6: human CCR7 variant A118E (20100130760) (human, UniProt P32248 25-378)
T6 sequence: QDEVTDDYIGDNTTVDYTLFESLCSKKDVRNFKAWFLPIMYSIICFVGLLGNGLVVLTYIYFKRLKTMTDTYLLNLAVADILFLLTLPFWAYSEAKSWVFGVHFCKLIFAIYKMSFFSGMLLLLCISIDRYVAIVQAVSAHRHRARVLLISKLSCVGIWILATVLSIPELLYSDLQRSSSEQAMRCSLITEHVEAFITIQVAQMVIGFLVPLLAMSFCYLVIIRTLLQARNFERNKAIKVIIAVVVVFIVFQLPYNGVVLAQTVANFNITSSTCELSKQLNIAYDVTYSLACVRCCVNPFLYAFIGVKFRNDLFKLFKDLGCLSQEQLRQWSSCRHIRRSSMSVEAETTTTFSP

T7: human CCR7 variant L47V (20100122626) (human, UniProt P32248 25-378)
T7 sequence: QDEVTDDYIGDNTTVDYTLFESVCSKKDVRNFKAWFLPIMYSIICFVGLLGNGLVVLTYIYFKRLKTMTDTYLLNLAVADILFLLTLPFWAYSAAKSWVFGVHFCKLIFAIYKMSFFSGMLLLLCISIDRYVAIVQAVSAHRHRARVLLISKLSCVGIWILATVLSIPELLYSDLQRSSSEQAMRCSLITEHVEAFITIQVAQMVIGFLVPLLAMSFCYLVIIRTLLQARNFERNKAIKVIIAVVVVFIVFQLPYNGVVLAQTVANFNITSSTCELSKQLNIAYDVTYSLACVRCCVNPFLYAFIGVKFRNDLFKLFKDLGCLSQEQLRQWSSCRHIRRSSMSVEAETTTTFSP


How the values were obtained:
Experiment in all cases: flow cytometry on transfected 293T cells, PE secondary antibody, geo mean
[1] = molecular target: T1, human CCR7 variant F128L (20100126472)
[2] = molecular target: T2, human CCR7 variant S202N (20110009483)
[3] = molecular target: T3, human CCR7 variant L300T (20110018204)
[4] = molecular target: T4, human CCR7 variant S295N (20110018205)
[5] = molecular target: T5, human CCR7 variant F44Y (20100128285)
[6] = molecular target: T6, human CCR7 variant A118E (20100130760)
[7] = molecular target: T7, human CCR7 variant L47V (20100122626)

Row | binding result [1] | binding result [2] | binding result [3] | binding result [4] | binding result [5] | binding result [6] | binding result [7] | Binder
1 | binds | binds | binds | binds | binds | binds | binds | antibody 6B4.1 (antibody, V domains shown, Human antibody from XenoMouse hybridoma; Light = 2 and heavy = 42 is inferred from the order of the listing (light chains first)) VH: QVQLVESGGGVVQPGRSLRLSCAASGFTFSSYGMHWVRQAPGKGLEWVAVIWYDGSKKYYADSVKGRFTISRDNSKNTLYLQMNRLRAEDTAVYYCARDGGIAVFLQDNWFDPWGQGTLVTVSS VL: SYELTQPPSVSVSPGQRARITCSGDKLGDKYASWYQQKPGQSPLLVIYQDSKRPSGIPERFSGSNSGNTATLTISGTQAMDEADYYCQAWGSSTVIFGGGTKLTVLG
2 | binds | binds | binds | binds | binds | binds | binds | antibody 6B5.1 (antibody, human IgG2, lambda, V domains shown, Human antibody from XenoMouse hybridoma; Light = 18 and heavy = 50 is inferred from the order of the listing) VH: QVQLVESGGGVVQPGRSLRLSCAASGFTFRSYGMHWVRQAPGKGLEWVAVIWYDGSKKYYADSVKGRFTISRDNSKNTLYLQMNRLRAEDTAVYYCARDGGIAVFLEDNWFDPWGQGTLVTVSS VL: SYELTQPPSVSVSPGQRASITCSGDKLGDKYASWYQQKPGQSPLLVIYQDGKRPSGIPERFSGSNSGNTATLTISGTQAMDEADYYCQAWGSSTVIFGGGTKLTVLG
